Experimental findings from paper PMC10294656 are described below.

For this assay, the target named is human apolipoprotein-B mRNA-editing catalytic polypetide-like 3A protein (human) (UniProt P31941). As to the kind of experiment: co-IP; HepaRG cells cotransfected with pLenti6.3-Apobec3A-V5 and pEYFP-Apobec3A, mock-infected or infected with HAdV wt (50 ffu/cell), harvested 24 and 48 hpi; whole-cell lysates; YFP-Apobec3A held on ChromoTek GFP-Trap agarose beads, V5-Apobec3A detected by Western blot; V5 signal normalised to input and β-actin. In general terms: In western blotting, separated proteins are transferred to a membrane and probed.

Chain of human apolipoprotein-B mRNA-editing catalytic polypetide-like 3A protein, P31941 1-199 (enzyme; other documents disagree on this pair) (P31941 whole entry): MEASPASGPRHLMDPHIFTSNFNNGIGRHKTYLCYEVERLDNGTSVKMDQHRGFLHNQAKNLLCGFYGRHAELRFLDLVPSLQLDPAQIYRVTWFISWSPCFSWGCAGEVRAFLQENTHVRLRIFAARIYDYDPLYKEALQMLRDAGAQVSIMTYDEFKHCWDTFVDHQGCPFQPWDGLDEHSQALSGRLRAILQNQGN

Take “human apolipoprotein-B mRNA-editing catalytic polypetide-like 3A protein, P31941 1-199 (enzyme; other documents disagree on this pair)”: the fold increase of co-precipitated V5-Apobec3A at 48 h after HAdV infection against mock stood at 10 fold.
